Results taken from the supplement of paper PMC11246515.
± gives the standard deviation of the averaged measurements.

Test: total protein half-life in vivo (active degradation + dilution); higher = more stable protein
[1] = E. coli NCM3722 delta-clpP delta-lon delta-hslV, growth: N-lim chemostat, doubling time 6 h
[2] = E. coli NCM3722 delta-clpP, growth: N-lim chemostat, doubling time 6 h
[3] = E. coli NCM3722 delta-hslV, growth: N-lim chemostat, doubling time 6 h
[4] = E. coli NCM3722 delta-lon, growth: N-lim chemostat, doubling time 6 h
[5] = E. coli NCM3722 delta-smpB, growth: N-lim chemostat, doubling time 6 h
[6] = wild type E. coli NCM3722, growth: C-lim chemostat, doubling time 3 h
[7] = wild type E. coli NCM3722, growth: C-lim chemostat, doubling time 6 h
[8] = wild type E. coli NCM3722, growth: C-lim chemostat, doubling time 12 h
[9] = wild type E. coli NCM3722, growth: N-lim chemostat, doubling time 6 h
[10] = wild type E. coli NCM3722, growth: N-lim chemostat, doubling time 12 h
[11] = wild type E. coli NCM3722, growth: P-lim chemostat, doubling time 6 h
[12] = wild type E. coli NCM3722, growth: P-lim chemostat, doubling time 12 h

| Sequence | total protein half-life in vivo [1] [h] | total protein half-life in vivo [2] [h] | total protein half-life in vivo [3] [h] | total protein half-life in vivo [4] [h] | total protein half-life in vivo [5] [h] | total protein half-life in vivo [6] [h] | total protein half-life in vivo [7] [h] | total protein half-life in vivo [8] [h] | total protein half-life in vivo [9] [h] | total protein half-life in vivo [10] [h] | total protein half-life in vivo [11] [h] | total protein half-life in vivo [12] [h] |
| --- | --- | --- | --- | --- | --- | --- | --- | --- | --- | --- | --- | --- |
| MSEPLLIARTPDTELFLLPGMANRHGLITGATGTGKTVTLQKLAESLSEIGVPVFMADVKGDLTGVAQAGTVSEKLLARLKNIGVNDWQPHANPVVVWDIFGEKGHPVRATVSDLGPLLLARLLNLNDVQSGVLNIIFRIADDQGLLLLDFKDLRAITQYIGDNAKSFQNQYGNISSASVGAIQRGLLSLEQQGAAHFFGEPMLDIKDWMRTDANGKGVINILSAEKLYQMPKLYAASLLWMLSELYEQLPEAGDLEKPKLVFFFDEAHLLFNDAPQVLLDKIEQVIRLIRSKGVGVWFVSQNPSDIPDNVLGQLGNRVQHALRAFTPKDQKAVKAAAQTMRANPAFDTEKAIQELGTGEALISFLDAKGSPSVVERAMVIAPCSRMGPVTEDERNGLINHSPVYGKYEDEVDRESAYEMLQKGFQASTEQQNNPPAKGKEVAVDDGILGGLKDILFGTTGPRGGKKDGVVQTMAKSAARQVTNQIVRGMLGSLLGGRRR | 5.04 ± 0.57 | 4.98 ± 0.19 | 5.1 ± 0.27 | 5.07 ± 0.26 | 4.73 ± 0.25 | 3.263 ± 0.025 | 5.39 ± 0.34 | 9.77 ± 0.81 | 4.77 ± 0.15 | 8.27 ± 0.62 | 5.66 ± 0.28 | 9.88 ± 0.78 |
| MKRAPLITGLLLISTSCAYASSGGCGADSTSGATNYSSVVDDVTVNQTDNVTGREFTSATLSSTNWQYACSCSAGKAVKLVYMVSPVLTTTGHQTGYYKLNDSLDIKTTLQANDIPGLTTDQVVSVNTRFTQIKNNTVYSAATQTGVCQGDTSRYGPVNIGANTTFTLYVTKPFLGSMTIPKTDIAVIKGAWVDGMGSPSTGDFHDLVKLSIQGNLTAPQSCKINQGDVIKVNFGFINGQKFTTRNAMPDGFTPVDFDITYDCGDTSKIKNSLQMRIDGTTGVVDQYNLVARRRSSDNVPDVGIRIENLGGGVANIPFQNGILPVDPSGHGTVNMRAWPVNLVGGELETGKFQGTATITVIVR | – | 5.21 | 6.04 ± 0.24 | – | – | 3.66 | 6.25 ± 0.34 | 11.5 | 5.8 | 14 | 5.42 | 13.3 |
| MPRLASAVLPLCSQHPGQCGLFPLEKSLDAFAARYRLAEMAEHTLDVQYYIWQDDMSGRLLFSALLAAAKRGVRVRLLLDDNNTPGLDDILRLLDSHPRIEVRLFNPFSFRLLRPLGYITDFSRLNRRMHNKSFTVDGVVTLVGGRNIGDAYFGAGEEPLFSDLDVMAIGPVVEDVADDFARYWYCKSVSPLQQVLDVPEGEMADRIELPASWHNDAMTHRYLRKMESSPFINHLVDGTLPLIWAKTRLLSDDPAKGEGKAKRHSLLPQRLFDIMGSPSERIDIISSYFVPTRAGVAQLLRMVRKGVKIAILTNSLAANDVAVVHAGYARWRKKLLRYGVELYELKPTREQSSTLHDRGITGNSGASLHAKTFSIDGKTVFIGSFNFDPRSTLLNTEMGFVIESETLAQLIDKRFIQSQYDAAWQLRLDRWGRINWVDRHAKKEIILKKEPATSFWKRVMVRLASILPVEWLL | 5.59 ± 0.72 | 5.95 ± 0.048 | 5.92 ± 1.4 | 5.31 ± 0.46 | 5.1 ± 0.35 | 2.78 ± 0.11 | 5.38 ± 0.64 | – | 4.78 ± 0.52 | 11.1 ± 0.75 | 5.59 ± 0.044 | – |
| MSETAKKVIVGMSGGVDSSVSAWLLQQQGYQVEGLFMKNWEEDDGEEYCTAAADLADAQAVCDKLGIELHTVNFAAEYWDNVFELFLAEYKAGRTPNPDILCNKEIKFKAFLEFAAEDLGADYIATGHYVRRADVDGKSRLLRGLDSNKDQSYFLYTLSHEQIAQSLFPVGELEKPQVRKIAEDLGLVTAKKKDSTGICFIGERKFREFLGRYLPAQPGKIITVDGDEIGEHQGLMYHTLGQRKGLGIGGTKEGTEEPWYVVDKDVENNILVVAQGHEHPRLMSVGLIAQQLHWVDREPFTGTMRCTVKTRYRQTDIPCTVKALDDDRIEVIFDEPVAAVTPGQSAVFYNGEVCLGGGIIEQRLPLPV | 4.81 ± 0.17 | 4.73 ± 0.56 | 4.73 ± 0.06 | 5.33 ± 0.43 | 4.71 ± 0.32 | 2.89 ± 0.46 | 7.28 ± 0.86 | 10.4 ± 1.7 | 4.77 ± 0.39 | 8.691 ± 0.075 | 5.5 ± 0.061 | 12 ± 1.4 |
| MLKLFSAFRKNKIWDFNGGIHPPEMKTQSNGTPLRQVPLAQRFVIPLKQHIGAEGELCVSVGDKVLRGQPLTRGRGKMLPVHAPTSGTVTAIAPHSTAHPSALAELSVIIDADGEDCWIPRDGWADYRTRSREELIERIHQFGVAGLGGAGFPTGVKLQGGGDKIETLIINAAECEPYITADDRLMQDCAAQVVEGIRILAHILQPREILIGIEDNKPQAISMLRAVLADSNDISLRVIPTKYPSGGAKQLTYILTGKQVPHGGRSSDIGVLMQNVGTAYAVKRAVIDGEPITERVVTLTGEAIARPGNVWARLGTPVRHLLNDAGFCPSADQMVIMGGPLMGFTLPWLDVPVVKITNCLLAPSANELGEPQEEQSCIRCSACADACPADLLPQQLYWFSKGQQHDKATTHNIADCIECGACAWVCPSNIPLVQYFRQEKAEIAAIRQEEKRAAEAKARFEARQARLEREKAARLERHKSAAVQPAAKDKDAIAAALARVKEKQAQATQPIVIKAGERPDNSAIIAAREARKAQARAKQAELQQTNDAATVADPRKTAVEAAIARAKARKLEQQQANAEPEQQVDPRKAAVEAAIARAKARKLEQQQANAEPEEQVDPRKAAVEAAIARAKARKLEQQQANAEPEQQVDPRKAAVEAAIARAKARKREQQPANAEPEEQVDPRKAAVEAAIARAKARKLEQQQANAVPEEQVDPRKAAVAAAIARAQAKKAAQQKVVNED | 5.65 ± 0.73 | 2.67 ± 0.51 | – | > 8 | 1.01 ± 0.033 | 1.3 ± 0.13 | 1.31 ± 0.069 | 1.76 | 1.16 | – | 1.8 ± 0.14 | 2.72 ± 0.58 |
